This series concerns the molecule itself. As to the kind of experiment: AUC.

B1: His6-Dma1(187–end) (domain or fragment, S. pombe, UniProt Q10322 187-267, looked up)
chain: SGPPECCICLMPVLPCQALFVAPCSHSYHYKCIRPTLNESHPYFSCFICRKYHDLEAPVEEGDESLNDLLRNATVKDDASE
As a reminder, the stoichiometry N is the number of molecules, sites or subunits per partner or assembly. Regarding B1, the “stoichiometry N” value stood at 2.

For the origin of these results see paper PMC3406662 (The Journal of Biological Chemistry, 2012).
